Experimental data: the supplement of paper PMC10567573

B1: MYOZ1 (parent)
chain: FSDSSMDHFQKFLPTVGGQLGTAG
B2: PBXIP1 (parent)
chain: LPVETLGPASRMDPESERALQAPH

Variants of: B1
Assay: protein stability index of a GFP-peptide fusion (GPS, HEK-293T) (PSI 1-6); higher = more stable
Details: c terminus: a fixed tail appended
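Further: lentivirally expressed fusions sorted by FACS into six bins by GFP to DsRed ratio, PSI derived from sequencing read proportions per bin multiplied by bin number.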

Row | Variant | protein stability index
1 | S2A | 1.77
2 | S2F | 1.62
3 | S2P | 2.54
4 | S2G | 2.9
5 | S2Q | 2.59
6 | S2L | 3.52
7 | S2H | 1.5
8 | S2C | 1.5
9 | S2M | 2.63
10 | S2R | 1.94
11 | S2E | 2.81
12 | S2Y | 1.83
13 | S2D | 2.95
14 | S2N | 2.23
15 | S2I | 1.92
16 | S5Q | 2.19
17 | S5D | 2.58
18 | S5F | 2.22
19 | S5A | 3.02
20 | S5L | 3.12
21 | S5T | 2.98
22 | S5N | 3.11
23 | S5W | 2.38
24 | S5M | 1.82
25 | S5E | 2.91

Row | Variant | protein stability index
26 | S5H | 2.25
27 | S5P | 2.08
28 | S5K | 2.07
29 | S5G | 1.88
30 | S5R | 1.05
31 | S5C | 2.19
32 | S4D | 2.15
33 | S4R | 2.51
34 | S4I | 3.59
35 | S4E | 2.94
36 | S4G | 2.15
37 | S4A | 2.09
38 | S4P | 2.42
39 | S4H | 2.35
40 | S4N | 2.32
41 | S4F | 2.87
42 | S4Y | 1.61
43 | S4C | 1.43
44 | S4T | 2.65
45 | S4M | 1.79
46 | S4K | 2.12
47 | S4V | 3.14
48 | S4Q | 1.92
49 | S4W | 2.89
50 | F1Y | 2.83

Row | Variant | protein stability index
51 | F1I | 2.92
52 | F1V | 3.56
53 | F1G | 2.41
54 | F1L | 3.11
55 | F1N | 3.23
56 | F1T | 3.51
57 | F1K | 3.77
58 | F1R | 3.41
59 | F1W | 2.56
60 | F1M | 3.7
61 | F1S | 4.12
62 | F1C | 2.26
63 | F1A | 3.62
64 | F1H | 3.88
65 | F1P | 3.6
66 | F1E | 3.38
67 | F9H | 2.57
68 | F9C | 2.92
69 | F9K | 3.09
70 | F9M | 3.37
71 | F9I | 2.46
72 | F9G | 4.56
73 | F9D | 4.52
74 | F9A | 2.71
75 | F9E | 4.4

Row | Variant | protein stability index
76 | F9L | 2.16
77 | D3N | 1.67
78 | D3F | 1.94
79 | D3H | 1.88
80 | D3W | 2.06
81 | D3Y | 2.02
82 | D3S | 1.97
83 | D3P | 1.56
84 | D3A | 1.96
85 | D3V | 1.96
86 | D3Q | 2.27
87 | D3T | 1.96
88 | D3R | 1.49
89 | D3I | 1.89
90 | D3E | 3.06
91 | D3M | 1.45
92 | D3K | 1.63
93 | D3L | 1.55
94 | D7G | 1.44
95 | D7T | 2.15
96 | D7A | 1.38
97 | D7L | 1.55
98 | D7H | 1.82
99 | D7K | 1.8
100 | D7V | 2.15

Row | Variant | protein stability index
101 | D7C | 1.9
102 | D7R | 2.6
103 | D7S | 2.56
104 | D7M | 1.38
105 | D7P | 2.38
106 | D7E | 2.02
107 | D7Q | 2.02
108 | D7I | 2.3
109 | H8Q | 2.58
110 | H8S | 1.53
111 | H8T | 2.51
112 | H8L | 1.35
113 | H8R | 1.61
114 | H8D | 2.49
115 | H8I | 2.21
116 | H8A | 1.84
117 | H8N | 2.48
118 | H8G | 2.07
119 | H8P | 2.36
120 | H8V | 1.76
121 | H8Y | 2.08
122 | H8F | 1.38
123 | H8K | 2.15
124 | H8E | 2.34
125 | H8W | 2.22

Row | Variant | protein stability index
126 | H8C | 1.72
127 | M6A | 2.65
128 | M6S | 2.26
129 | M6F | 3.55
130 | M6T | 2.58
131 | M6Y | 2.32
132 | M6R | 2.66
133 | M6G | 2.86
134 | M6N | 2.78
135 | M6C | 1.96
136 | M6W | 1.44
137 | M6V | 2.23
138 | M6H | 2.25
139 | M6L | 2.29
140 | M6Q | 3
141 | M6E | 3
142 | M6I | 2.04
143 | M6P | 2.56
144 | M6K | 3.08
145 | M6D | 3.22

Variants of: B2
Assay: as above
Details: c terminus: a fixed tail appended

Row | Variant | protein stability index
146 | S16V | 4.31
147 | S16C | 4.49
148 | S16G | 4.56
149 | S16M | 4.09
150 | S16T | 4.35
151 | S16W | 4.12
152 | S16Q | 4.53
153 | S16P | 3.95
154 | S16A | 4.16
155 | S16L | 2.83
156 | S16F | 3.85
157 | S16I | 3.77
158 | S16R | 3.56
159 | S16H | 4.25
160 | S16K | 4.34
161 | S16D | 4.54
162 | S16N | 4.54
163 | S16E | 4.48
164 | S16Y | 4.05
165 | E17Y | 3.92
166 | E17R | 3.91
167 | E17C | 3.76
168 | E17H | 3.92
169 | E17N | 4.29

Row | Variant | protein stability index
170 | E17L | 3.72
171 | E17F | 3.61
172 | E17D | 3.97
173 | E17V | 4.62
174 | E17S | 4.56
175 | E17K | 4.19
176 | E17M | 3.9
177 | E17W | 3.4
178 | E17A | 3.65
179 | E17G | 4.13
180 | E17P | 4.18
181 | E17Q | 4.06
182 | E17T | 4.23
183 | E17I | 3.1
184 | E15G | 3.99
185 | E15D | 5.08
186 | E15P | 3.92
187 | E15H | 4.13
188 | E15W | 3.1
189 | E15S | 3.81
190 | E15V | 4.28
191 | E15M | 3.48
192 | E15T | 4.02
193 | E15F | 3.81

Row | Variant | protein stability index
194 | E15Y | 3.95
195 | E15N | 4.47
196 | E15L | 4.03
197 | E15C | 3.82
198 | E15I | 3.27
199 | E15K | 4.04
200 | E15R | 4.19
201 | E15Q | 4.26
202 | P23L | 4.49
203 | P23S | 4.78
204 | P23R | 4.66
205 | P23K | 4.57
206 | P23Q | 4.06
207 | P23Y | 3.99
208 | P23M | 4.16
209 | P23W | 3.92
210 | P23H | 4.45
211 | P23V | 3.92
212 | P23C | 4.19
213 | P23F | 3.98
214 | P23D | 4.6
215 | P23T | 4.57
216 | P23E | 4.8
217 | P23G | 5.01

Row | Variant | protein stability index
218 | P23N | 4.26
219 | P23A | 4.09
220 | P23I | 4.28
221 | Q21N | 4.28
222 | Q21F | 3.8
223 | Q21T | 4.55
224 | Q21L | 3.96
225 | Q21I | 4.09
226 | Q21P | 4.53
227 | Q21C | 4.14
228 | Q21R | 4.44
229 | Q21E | 4.79
230 | Q21D | 4
231 | Q21G | 3.97
232 | Q21W | 3.22
233 | Q21M | 4.05
234 | Q21V | 4.39
235 | Q21K | 4.28
236 | Q21A | 3.93
237 | Q21Y | 3.67
238 | Q21S | 4.45
239 | Q21H | 3.92
240 | H24P | 4.03
241 | H24C | 4.05

Row | Variant | protein stability index
242 | H24Q | 4.31
243 | H24N | 4.61
244 | H24D | 4.75
245 | H24R | 4.16
246 | H24M | 4.23
247 | H24V | 4.47
248 | H24W | 4.07
249 | H24T | 4.59
250 | H24F | 4.21
251 | H24Y | 4.07
252 | H24A | 4.44
253 | H24K | 4.5
254 | H24I | 3.72
255 | H24L | 3.94
256 | H24G | 4.26
257 | H24S | 4.75
258 | H24E | 4.36
259 | A19Y | 3.64
260 | A19R | 4.09
261 | A19S | 4.19
262 | A19F | 4.05
263 | A19C | 4.48
264 | A19H | 4.31
265 | A19P | 4.71

Row | Variant | protein stability index
266 | A19V | 4.46
267 | A19K | 4.32
268 | A19E | 4.68
269 | A19T | 4.63
270 | A19N | 4.45
271 | A19G | 4.23
272 | A19L | 4.22
273 | A19I | 4
274 | A19D | 4.41
275 | A19W | 3.82
276 | A19M | 4.21
277 | A19Q | 4.46
278 | R18N | 4.62
279 | R18E | 4.47
280 | R18I | 4.29
281 | R18M | 4.73
282 | R18C | 4.12
283 | R18D | 4.44
284 | R18G | 4.66
285 | R18W | 3.66
286 | R18S | 4.19
287 | R18Y | 3.7
288 | R18A | 4.57
289 | R18Q | 4.55

Row | Variant | protein stability index
290 | R18P | 4.18
291 | R18F | 4.07
292 | R18K | 4.6
293 | R18H | 4.77
294 | R18L | 3.69
295 | R18T | 4.82
296 | R18V | 4.45
297 | L20M | 4.45
298 | L20H | 4.27
299 | L20S | 4.49
300 | L20T | 4.58
301 | L20N | 4.42
302 | L20G | 4.46
303 | L20F | 4.28
304 | L20Q | 4.7
305 | L20C | 3.99
306 | L20P | 4.72
307 | L20I | 4.55
308 | L20W | 3.7
309 | L20Y | 4.14
310 | L20V | 3.82
311 | L20D | 4.92
312 | L20E | 4.81
313 | L20K | 4.41

Row | Variant | protein stability index
314 | L20A | 4.26
315 | L20R | 4.86
316 | A22T | 4.7
317 | A22V | 4.2
318 | A22E | 4.68
319 | A22Y | 4.31
320 | A22Q | 4.45
321 | A22N | 4.5
322 | A22I | 4.23
323 | A22R | 4.78
324 | A22G | 4.72
325 | A22K | 4.4
326 | A22C | 4.45
327 | A22S | 4.36
328 | A22D | 4.7
329 | A22M | 3.68
330 | A22H | 4.76
331 | A22W | 3.25
332 | A22L | 3.98
333 | A22P | 4.27
334 | A22F | 4.01
